This note sets out measurements from patent US20120316071A1 (published 2012).

For assay [1], the target named is T1, rHuman IGF-1 sR (insulin-like growth factor-1 soluble receptor), CF (R&D Systems Cat#391-GR) (human, UniProt P08069 31-932).
T1 construct: Bought soluble receptor
Kind of assay: ECL multispot (MSD), antigen spotted, Fab in solution; blank spot 306.

Assay [2] addresses T2, rHuman EGF R/Fc Chimera, CF (R&D Systems Cat#344-ER) (human, UniProt P00533 25-645).
T2 construct: Bought reagent
The description is as above.

The target of assay [3] is T3, rHuman HGF R/c-MET/Fc Chimera, CF (R&D Systems Cat#358-MT/CF) (human, UniProt P08581 25-932).
T3 construct: Bought reagent; also called HGF R/Fc
The description is as above.

For assay [4], the target named is T4, Recombinant Human DLL4 (R&D Systems Cat#1506-D4/CF) (human, UniProt Q9NR61 27-524).
T4 construct: Bought recombinant protein; also called delta-like protein 4; rHuman DLL4
Described as above.

Assay [5] deals with T5, rHuman P-Cadherin/Fc Chimera, CF (R&D Systems Cat#861-PC) (human, UniProt P22223 108-654).
T5 construct: Bought reagent
The assay is described as above.

Assay [6] deals with T6, rHuman ErbB2/Fc Chimera, CF (R&D Systems Cat#1129-ER) (human, UniProt P04626 23-652).
T6 construct: Bought reagent
The assay is described as above.

Assay [7] addresses T7, rHuman Notch-1/Fc Chimera, CF (R&D Systems Cat#3647-TK) (human, UniProt P46531 19-526).
T7 construct: Bought reagent
Kind of assay: ECL multispot (MSD), antigen spotted, Fab in solution; blank spot 198.

Assay [8] concerns the target T1, rHuman IGF-1 sR (insulin-like growth …). The description is as above.
Assay [9] addresses T2, rHuman EGF R/Fc Chimera, CF (R&D …). The description is as above.
Assay [10] has as its target T3, rHuman HGF R/c-MET/Fc Chimera, CF (R&D …). The assay is described as above.
Assay [11] concerns the target T8, rHuman Erythropoietin R/Fc Chimera, CF (R&D Systems Cat#963-ER) (human, UniProt P19235 25-250).
T8 construct: Bought reagent; also called EPO R; Epo R/Fc
T8 sequence (looked up): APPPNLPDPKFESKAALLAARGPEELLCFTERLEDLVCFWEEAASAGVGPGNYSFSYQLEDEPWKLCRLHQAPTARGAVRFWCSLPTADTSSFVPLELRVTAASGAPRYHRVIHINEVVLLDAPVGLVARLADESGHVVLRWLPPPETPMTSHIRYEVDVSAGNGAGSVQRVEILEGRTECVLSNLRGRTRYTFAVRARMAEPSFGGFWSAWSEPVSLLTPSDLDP
The description is as above.

The target of assay [12] is T4, Recombinant Human DLL4 (R&D Systems …). The description is as above.
Assay [13] concerns the target T5, rHuman P-Cadherin/Fc Chimera, CF (R&D …). The assay is described as above.
Assay [14] concerns the target T9, rHuman CD44/Fc Chimera, CF (R&D Systems Cat#3660-CD) (human, UniProt P16070 21-220).
T9 construct: Bought reagent
The assay is described as above.

For assay [15], the target named is T6, rHuman ErbB2/Fc Chimera, CF (R&D …). The assay is described as above.
Assay [16] addresses T7, rHuman Notch-1/Fc Chimera, CF (R&D …). Kind of assay: ECL multispot (MSD), antigen spotted, Fab in solution; blank spot 289.
The target in assay [17] is T1, rHuman IGF-1 sR (insulin-like growth …). The assay is described as above.
Assay [18] deals with T2, rHuman EGF R/Fc Chimera, CF (R&D …). Described as above.
The target in assay [19] is T3, rHuman HGF R/c-MET/Fc Chimera, CF (R&D …). The assay is described as above.
Assay [20] addresses T8, rHuman Erythropoietin R/Fc Chimera, CF …. The description is as above.
In assay [21] the target is T4, Recombinant Human DLL4 (R&D Systems …). The assay is described as above.
The target in assay [22] is T5, rHuman P-Cadherin/Fc Chimera, CF (R&D …). The assay is described as above.
The target of assay [23] is T9, rHuman CD44/Fc Chimera, CF (R&D Systems …). The description is as above.
Assay [24] deals with T6, rHuman ErbB2/Fc Chimera, CF (R&D …). Described as above.
Assay [25] has as its target T7, rHuman Notch-1/Fc Chimera, CF (R&D …). The experiment in a line: ECL multispot (MSD), antigen spotted, Fab in solution; blank spot 356.
Assay [26] addresses T1, rHuman IGF-1 sR (insulin-like growth …). The description is as above.
The target in assay [27] is T2, rHuman EGF R/Fc Chimera, CF (R&D …). Described as above.
Assay [28] concerns the target T3, rHuman HGF R/c-MET/Fc Chimera, CF (R&D …). The description is as above.
In assay [29] the target is T8, rHuman Erythropoietin R/Fc Chimera, CF …. The description is as above.
The target of assay [30] is T4, Recombinant Human DLL4 (R&D Systems …). Described as above.
In assay [31] the target is T5, rHuman P-Cadherin/Fc Chimera, CF (R&D …). Described as above.
The target in assay [32] is T9, rHuman CD44/Fc Chimera, CF (R&D Systems …). Described as above.
Assay [33] addresses T6, rHuman ErbB2/Fc Chimera, CF (R&D …). Described as above.

T3 sequence (P08581 25-932, change not shown): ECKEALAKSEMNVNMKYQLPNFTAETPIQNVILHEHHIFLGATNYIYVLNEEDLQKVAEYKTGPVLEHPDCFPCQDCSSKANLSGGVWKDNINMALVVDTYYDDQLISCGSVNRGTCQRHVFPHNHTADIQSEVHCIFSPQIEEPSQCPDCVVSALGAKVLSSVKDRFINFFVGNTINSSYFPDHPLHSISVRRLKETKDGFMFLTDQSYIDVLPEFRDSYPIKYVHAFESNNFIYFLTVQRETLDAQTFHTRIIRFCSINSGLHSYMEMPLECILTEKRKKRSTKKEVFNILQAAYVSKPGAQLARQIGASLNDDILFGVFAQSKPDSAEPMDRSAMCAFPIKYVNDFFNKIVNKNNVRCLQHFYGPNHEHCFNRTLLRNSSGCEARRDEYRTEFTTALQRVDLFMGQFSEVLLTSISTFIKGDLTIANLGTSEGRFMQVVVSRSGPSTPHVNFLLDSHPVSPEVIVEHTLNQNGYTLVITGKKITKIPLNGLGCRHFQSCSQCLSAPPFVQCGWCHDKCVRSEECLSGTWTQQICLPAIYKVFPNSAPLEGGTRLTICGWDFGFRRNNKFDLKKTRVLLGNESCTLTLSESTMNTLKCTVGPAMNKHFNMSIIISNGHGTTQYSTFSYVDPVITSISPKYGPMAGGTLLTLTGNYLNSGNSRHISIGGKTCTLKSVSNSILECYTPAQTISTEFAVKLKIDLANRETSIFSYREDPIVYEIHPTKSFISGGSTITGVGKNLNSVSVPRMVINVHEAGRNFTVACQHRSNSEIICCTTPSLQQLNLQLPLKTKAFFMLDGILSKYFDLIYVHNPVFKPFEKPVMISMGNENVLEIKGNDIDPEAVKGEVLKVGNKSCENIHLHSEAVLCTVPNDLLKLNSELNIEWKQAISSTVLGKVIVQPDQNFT

B1: Fab VH1-46_IGHD6-6*01_IGHJ1*01 S102A/S103P/S104F/H111F (APFF) & L6_IGKJ1*01 (Fab, V domains shown)
VH: QVQLVQSGAEVKKPGASVKVSCKASGYTFTSYYMHWVRQAPGQGLEWMGIINPSGGSTSYAQKFQGRVTMTRDTSTSTVYMELSSLRSEDTAVYYCAREEYAPFSAEYFQFWGQGTLVTVSS
VL: not shown
notes: Tested as Fab made in E. coli: VH joined to CH1 from Plasmid A (His6 and Flag tags), VL joined to kappa CL from Plasmid C; Light chain unmutated (parent); also called APFF / parent; H:APFF & L:wt
On to B1, for which the ECL signal in assay [1] was 409; in assay [2], 386; in assay [3] it was 349; in [4], 208000; in assay [5], 466; in assay [6], 412.

B2: Fab VH1-46_IGHD6-6*01_IGHJ1*01 S102A/S103P/S104F/H111F (APFF) & L6_IGKJ1*01 S30Q (Fab, V domains shown)
VH: QVQLVQSGAEVKKPGASVKVSCKASGYTFTSYYMHWVRQAPGQGLEWMGIINPSGGSTSYAQKFQGRVTMTRDTSTSTVYMELSSLRSEDTAVYYCAREEYAPFSAEYFQFWGQGTLVTVSS
VL: EIVLTQSPATLSLSPGERATLSCRASQSVQSYLAWYQQKPGQAPRLLIYDASNRATGIPARFSGSGSGTDFTLTISSLEPEDFAVYYCQQRSNWPPWTFGQGTKVEIKR
notes: Tested as Fab made in E. coli: VH joined to CH1 from Plasmid A (His6 and Flag tags), VL joined to kappa CL from Plasmid C; also called APFF / S30Q
Turning to B2, the ECL signal came out at 243 in assay [7]; 342 in [8]; 353 in assay [9]; 339 in [10]; 423 in assay [11]; 203000 in assay [12]. The values for the ECL signal in assay [13], in assay [14] and in assay [15] were 298, 400 and 262, respectively.

B3: Fab VH1-46_IGHD6-6*01_IGHJ1*01 S102A/S103P/S104F/H111F (APFF) & L6_IGKJ1*01 S30W (Fab, V domains shown)
VH: QVQLVQSGAEVKKPGASVKVSCKASGYTFTSYYMHWVRQAPGQGLEWMGIINPSGGSTSYAQKFQGRVTMTRDTSTSTVYMELSSLRSEDTAVYYCAREEYAPFSAEYFQFWGQGTLVTVSS
VL: EIVLTQSPATLSLSPGERATLSCRASQSVWSYLAWYQQKPGQAPRLLIYDASNRATGIPARFSGSGSGTDFTLTISSLEPEDFAVYYCQQRSNWPPWTFGQGTKVEIKR
notes: Tested as Fab made in E. coli: VH joined to CH1 from Plasmid A (His6 and Flag tags), VL joined to kappa CL from Plasmid C; also called APFF / S30W
Regarding B3, the ECL signal in [16] worked out at 372; in [17], 471; in assay [18], 398; in assay [19] it was 399; in assay [20], 542; in [21], 191000. Moreover, the ECL signal in [22] was 342; in [23], 500; in assay [24], 289.

B4: Fab VH1-46_IGHD6-6*01_IGHJ1*01 S102A/S103P/S104F/H111F (APFF) & L6_IGKJ1*01 S30A (Fab, V domains shown)
VH: QVQLVQSGAEVKKPGASVKVSCKASGYTFTSYYMHWVRQAPGQGLEWMGIINPSGGSTSYAQKFQGRVTMTRDTSTSTVYMELSSLRSEDTAVYYCAREEYAPFSAEYFQFWGQGTLVTVSS
VL: EIVLTQSPATLSLSPGERATLSCRASQSVASYLAWYQQKPGQAPRLLIYDASNRATGIPARFSGSGSGTDFTLTISSLEPEDFAVYYCQQRSNWPPWTFGQGTKVEIKR
notes: Tested as Fab made in E. coli: VH joined to CH1 from Plasmid A (His6 and Flag tags), VL joined to kappa CL from Plasmid C; also called APFF / S30A
Turning to B4, the ECL signal in [25] was 380; in assay [26] it was 400; in [27], 322; in assay [28], 414; in [29], 561; in assay [30], 184000. Besides, the figures for the ECL signal in [31], in [32] and in [33] were 454, 390 and 251, respectively.
